Laboratory results as given in patent US6730503B1 (Roche Vitamins Inc., priority 1996, dated 2004).

Key:
[1] = Substrate specificity of purified enzymes, PMS-DCIP spectrophotometric assay; format: biochemical; conditions: A′ corrected 1.5-fold (purity about 65%)
Method: The enzymatic activity of the AADHs herein can be determined by methods known in the art, such as by photometric analysis using a spectrophotometer. In accordance with the present invention, one unit of enzyme activity was defined as the amount of enzyme which catalyzed the reduction of 1 μmole of DCIP per minute. The extinction coefficient of DCIP at pH 8.0 was taken as 15 mM^−1. In a preferred standard assay for determining the enzyme activity of the AADHs herein, a first cuvette includes a standard reaction mixture (1.0 ml) containing 0.1 mM DCIP, 1 mM PMS, 2 to 125 mM substrate, 50 mM Tris-malate-NaOH buffer (pH 8.0), and 10 μl of the enzyme solution. A second cuvette, i.e., a reference cuvette, contains all the above components except the substrate. The reference cuvette is used to standardize the background absorbance resulting from a substrate-independent (endogenous) reaction. Preferably, a double beam spectrophotometer is used to determine the activity of the enzyme in the presence of a substrate with respect to a standard reaction mixture in the absence of the substrate.
Enzyme activities of each clone (cell free extract, soluble fraction and membrane fraction) were measured by photometric analysis. The cells of each clone were inoculated in 5 ml of MB medium in a test tube and cultivated at 30° C. for 24 hours. The resulting broth was transferred into 200 ml of fresh MB medium in 500 ml flask and the flask was shaken on the rotary flask shaker at 30° C. for 24 hours. The cells were collected by centrifugation at 6,000×g for 10 minutes and washed with 40 ml of cold buffer consisting of 50 mM Tris-HCl, pH 7.5, 5 mM MgCl2 and 0.5 mM phenylmethylsulfonyl fluoride and suspended with the same buffer to prepare cell suspension of 1 g wet cells per 5 ml. The cell suspension was subjected twice to a French press cell disruptor (1,500 kg/cm^2) and the resulting homogenate was centrifuged at 6,000×g for 10 minutes to remove cell debris. Thus obtained cell free extract (CFE) was centrifuged at 100,000×g for 60 minutes. The resulting supernatant and pellet were collected as the cytosol fraction and the membrane fraction, respectively and subjected to PMS-DCIP assay as follows. The enzyme reaction mixture (1.0 ml) contained 100 μM DCIP, 1 mM PMS, 50 mM Tris malate-NaOH buffer, pH 8.0, a substrate and the enzyme (10 μl). Substrate-dependent decreasing rate of absorbance of DCIP at 600 nm was measured at 25° C. by using a Kontron spectrophotometer UVIKON 810. […] In the A-group, there were three types, A, A′ and A″ each of which was distinguished from each other by their physical map of the DNA carried on each plasmid. B- or C-group each consisted of only one type of protein derived from one region of the chromosomal DNA.

[2] = pH stability, 3 hours at 25° C., residual activity by PMS-DCIP assay; format: physicochemical; conditions: relative to no incubation at pH 8.0
Method: Enzymes A, A′, A″ and B were incubated in buffers of various pH-values for 3 hours at 25° C. and the residual activities were assayed and expressed as relative values against that obtained by no incubation at pH 8.
Table 3 indicates the results of pH-stabilities of the enzymes. The enzyme (about 0.01 mg/ml) was incubated with 50 mM buffer containing 5% sucrose, 0.2 M NaCl, and 5 mM CaCl2 at 25° C. for 3 hours and assayed by PMS-DCIP spectrophotometric method. The buffers were Na-acetate, pH4 and 5, Tris-malate-NaOH, pH 6, 7 and 8, glycine-NaOH, pH 9 and 10. The values in the table are expressed as relative activity against that obtained by no incubation at pH 8.0.

[3] = Thermal stability, 5 minutes, residual activity by PMS-DCIP assay; format: physicochemical
Method: Table 4 indicates the results of thermal-stabilities of the enzymes. The enzyme (about 0.05 mg/ml) in 25 mM HEPES buffer, pH 7.5, containing 5% sucrose, 0.2 M NaCl, and 5 mM CaCl2 was incubated at temperature indicated in the table (4-60° C.) for 5 minutes, cooled in ice bath and assayed by PMS-DCIP spectrophotometric method. Remaining activity was expressed as relative activity against that obtained by 4° C. incubation.

[4] = Oxidation product of AADH clones by resting cell reaction followed by TLC analysis; format: cell-based, P. putida
Source text: Enzyme A gene was originally cloned as a cosmid clone of p24D4 which has about 25 kb insert in EcoRI site of pVK100. Then, it was further subcloned to use as an Enzyme A gene cassette. The 2.7 kb EcoRV fragment which includes ORF of Enzyme A gene with about 500 bp of non-coding regions at the both ends was excised from 3.4 kb NruI fragment, which was isolated from p24D4 in M13 mp18, and was ligated to HindIII site of pUC18 with HindIII linker ([…]). The resulting plasmid was designated pSSA202. Enzyme A gene cassette (2.7 kb HindIII fragment) was then inserted at HindIII site of pVK102 to produce pSSA102R. The plasmid pSSA102R was introduced into nalidixic acid resistant P. putida [ATCC 21812] by a conjugal mating method as described in Example 1-(1). The transconjugant of P. putida carrying pSSA102R was selected on MB agar medium containing 50 μg/ml nalidixic acid and 10 μg/ml tetracycline (MNT agar medium) and subjected to a mini-resting cell reaction. […] The reaction mixture was assayed with TLC and 2KGA was identified as the product, while no 2KGA was observed by the same resting cell reaction with the host, nalidixic acid resistant P. putida [ATCC 21812].

B1: Enzyme B: recombinant AADH of G. oxydans DSM No. 4025, amino acid sequence SEQ ID NO 8, plasmid pSS31/pSSB103R (protein)
chain: MNPTTLLRTSAAVLLLTAPAAFAQVTPITDELLANPPAGEWINYGRNQENYRHSPLTQITADNVGQLQLVWARGMEAGAVQVTPMIHDGVMYLANPGDVIQALDAQTGDLIWEHRRQLPAVATLNAQGDRKRGVALYGTSLYFSSWDNHLIALDMETGQVVFDVERGSGEDGLTSNTTGPIVANGVIVAGSTCQYSPYGCFISGHDSATGEELWRNHFIPQPGEEGDETWGNDFEARWMTGVWGQITYDPVTNLVFYGSTGVGPASETQRGTPGGTLYGTNTRFAVRPDTGEIVWRHQTLPRDNWDQECTFEMMVANVDVQPSAEMEGLRAINPNAATGERRVLTGAPCKTGTMWSFDAASGEFLWARDTNYTNMIASIDETGLVTVNEDAVLKELDVEYDVCPTFLGGRDWSSAALNPDTGIYFLPLNNACYDIMAVDQEFSALDVYNTSATAKLAPGFENMGRIDAIDISTGRTLWSAERPAANYSPVLSTAGGVVFNGGTDRYFRALSQETGETLWQARLATVATGQAISYELDGVQYIAIGAGGLTYGTQLNAPLAEAIDSTSVGNAIYVFALPQ
modifications: Gluconobacter oxydans; SIGNAL (1)..(23)
For B1, the Substrate specificity ([1]; 2 mM L-Sorbosone) was 73.6 units/mg of purified protein, the Substrate specificity ([1]; 50 mM D-Glucose) was 943.9 units/mg of purified protein and the Substrate specificity ([1]; 50 mM D-Mannitol) was 517.4 units/mg of purified protein. For the same molecule, the Substrate specificity ([1]; 50 mM Isopropanol) was 72.3 units/mg of purified protein, the Substrate specificity ([1]; 50 mM n-Propanol) was 40.0 units/mg of purified protein and the Substrate specificity ([1]; 125 mM D-Fructose) was 2.1 units/mg of purified protein. For the same molecule, the Substrate specificity ([1]; 125 mM D-Sorbitol) was 130.9 units/mg of purified protein, the Substrate specificity ([1]; 125 mM L-Sorbose) was 8.4 units/mg of purified protein and the “Relative activity (pH stability)” value ([2]; incubated at pH 4.0, 3 hours) was 25.2%. For the same molecule, the “Relative activity (pH stability)” value ([2]; incubated at pH 5.0, 3 hours) was 56.1%, the “Relative activity (pH stability)” value ([2]; incubated at pH 6.0, 3 hours) was 100.9% and the “Relative activity (pH stability)” value ([2]; incubated at pH 7.0, 3 hours) was 101.9%. The “Relative activity (pH stability)” value ([2]; incubated at pH 8.0, 3 hours) was 114.0%, the “Relative activity (pH stability)” value ([2]; incubated at pH 9.0, 3 hours) was 101.9% and the “Relative activity (pH stability)” value ([2]; incubated at pH 10.0, 3 hours) was 85.5%. For the same molecule, the “Relative activity (pH stability)” value ([2]; incubated at pH 11.0, 3 hours) was 70.1%, the “Relative activity (thermal stability)” value ([3]; 4° C. for 5 minutes (reference)) was 100.0% and the “Relative activity (thermal stability)” value ([3]; 20° C. for 5 minutes, relative to 4° C. incubation) was 97.2%. For the same molecule, the “Relative activity (thermal stability)” value ([3]; 30° C. for 5 minutes, relative to 4° C. incubation) was 95.4%, the “Relative activity (thermal stability)” value ([3]; 40° C. for 5 minutes, relative to 4° C. incubation) was 84.6% and the “Relative activity (thermal stability)” value ([3]; 50° C. for 5 minutes, relative to 4° C. incubation) was 29.2%. For the same molecule, the “Relative activity (thermal stability)” value ([3]; 60° C. for 5 minutes, relative to 4° C. incubation) was 0.0%, the “Oxidation product of D-glucose” value [4] was “*2Oxidation product of D-glucose by Enzyme B, and Enzyems [A and B] was D-gluconic acid” and the “Oxidation product of D-sorbitol” value [4] was “L-sorbose”. The “Oxidation product of L-sorbosone” value [4] was “*4Oxidation product of L-sorbosone by Enzymes A, A′, A″, B, and [A and B] was 2KGA”.
